Test results as given in the DeepSol protein solubility set.

Test: soluble on expression in E. coli; label from the status in PepcDB or PDB records
In the case of “MTTTKANLTEFEQQLVDKAIGAMENAYCKYSNFKVGAALVCDDGEIIIGANHENASYGATICAERSAIVTALTKGHRKFKYIVVATELEAPCSPCGVCRQVLIEFGDYKVILGSSTSDQIIETTTYELLPYAFTPKSLDDHEKETEERKHHNDHNNKE”, the “soluble on expression in E. coli” value is reported as “not soluble”. With “MGSDKIHHHHHHMELVDKDLRSIQETRNLIRKAKEAQQVLATFSQKQIDAIVQAVSEATFNQREKLAKMANEETGFGIYEDKIIKNAFASKVVYDEMKDKATVGVIHDDAAKKVTEIAVPVGVIAGLIPSTNPTSTVIYKALISLKAANSIVFSPHPNALKSIIETVEIIQKAAIAAGAPEGCVSVIKTPTMQATSELMKNKETNLILATGGNAMVKAAYSSGTPAIGVGPGNGPAYIERSANVPHAVKQIMDSKTFDNGTICASEQSIIVETVNREAVKEELIKQGAYFLSPAEADKLAKFILRPNGTMNPQIVGRSVQHIASLVGLSIPKDRRLIVAEETHVGLKYPFSREKLAPIIAFYTVENWEAACALSIEILKGEGAGHTMGIHTENKEVIREFGLRKPVSRLLVNTSGTLGGIGASTNLVPALTLGCGAVGGSSTSDNIGVENLFNLRRVAYGVRDLEEIRQEFGQTSTTSVATSCETTNQEELVNAVVAQVLARLN” the “soluble on expression in E. coli” value was “not soluble”. With “MRERAYFIGAHAYSAPIIEPALYLVATPIGNLADITLRALQVLAGVDILACEDTRVTRVLLERYGIQKKTFLYHEYNAQKAGPKLLTALEENKAIALVSDAGTPLISDPGFRLVEEARKAGHKIVPIPGASALLAALVATGLPTDSFFFAGFLSARKAQRQKRLEQLKTIPATLVFYESPHRLVETLQDMVALFSADRPAAICRELTKKFETVDVSNLGNLSESYGKQAHIRGEIVVLVGQKLSSLNVMSDHEIDEMLLELARTYSAAKAASLASKKTGLKKQELFQRLNFLKDA” the “soluble on expression in E. coli” value was “not soluble”. With “MALPTIESFKKLSSEDKRQVLDHLFEPCNTLSNFVFIKVLHQQYNTYPEFINLVRKELLEFLKQSETFQSQYQGEISPVINEIISAHPRLGEPKKETLSVHSNNEQKTLNNDPEIIKKLKELNAAYEKTFPGLRYVVFVNGRSRHEIMDNMQKRIERNDINLERVEAFNAMCDIALDRANKLGIKL” the “soluble on expression in E. coli” value was “not soluble”. With “MSKQLLALNIDGALLRSNGKIHQATKDAIEYVKKKGIYVTLVTNRHFRSAQKIAKSLKLDAKLITHSGAYIAEKIDAPFFEKRISDDHTFNIVQVLESYQCNIRLLHEKYSIGNKKKVNSNLLGKALIHPSDPIFYPVQFVESLSDLLMDEPVSAPVIEVYTEHDIQHDITETITKAFPAVDVIRVNDEKLNIVPKGVSKEAGLALVASELGLSMDDVVAIGHQYDDLPMIELAGLGVAMGNAVPEIKRKADWVTRSNDEQGVAYMMKEYFRMQQRKGFLDKFHMKRV” the “soluble on expression in E. coli” value was “not soluble”. With “MPKAKAKTKNTEIISPHHYVYPNTTTLKNKYGIKNLNAFLEKCSHDTAKAMINLREESLPEYFDTAYLCHIHQQLFKNTFEWAGYLRHIPFTFADGTTAAMPEMKRTGWKNAFAIGDEIQEGLQRLDQTLAEKNNLQGLTREEFNSEAIELFNSLNQLHPFREGNGRTQRLFFENLAKAAGHQLNFSLITKERMMVASVAVAENGDLEPMQHLFEDISNPEKIRLLKEFMHTMKNTGRNVNDRPVMVAKEGETYTGTYRGAGLEGFALNVKGAYIIGNIDHLPPEQLKILKPGDKITFTAPK” the “soluble on expression in E. coli” value was “soluble”. For “MGSDKIHHHHHHVSDLLSQDEIDALLHGVDDVEEEEVSDALDARAYDFSSQDRIVRGRMPTLEIVNERFARHLRISMFNMMRRAAEVSINGVQMLKFGEYVHTLFVPTSLNMVRFSPLKGTALITMEARLVFILVDNFFGGDGRFHAKIEGREFTPTERRIVQLLLKIIFEDYKEAWAPVMDVEFDYLDSEVNPAMANIVSPTEVVVVSSFHIEVDGGGGDFHITMPYSMIEPIRELLDAGVQSDTQDTDMRWSQALKDEIMDVEVGLDATIVEKEISLKDVMGFKAGDIIPVEMPEYIVLRVEDLPTYRCKLGRSRENLALNIREKIPRPETVKTELQLVTKKSKSRDLNNI”, the “soluble on expression in E. coli” value was “not soluble”. For “MRGSGQFRVIGPGHPIRALVGDEAELPCRISPGKNATGMEVGWYRSPFSRVVHLYRNGKDQDAEQAPEYRGRTELLKESIGEGKVALRIQNVRFSDEGGYTCFFRDAEYQEEAAVELKVEDPFYWINPGRSRSHHHHHH”, the “soluble on expression in E. coli” value was “soluble”. In the case of “MFAKVHPAEDVKSGNTGSCHDLVRYLEKETGEGQRFFSHTEQDISPERVIMDIDGNKKALGANDAKFFMLSLNPSQSEQMHLIGRKVDDFKELTPQEKKEVFQKLEAFTRSAMDEYALNFGRDNIRGGQDLMYYARVETERSYHPEDEEVKQGIARIGEPKPGLNLHVHVIVSRKSLDGKVKLSPGAKSAGNTWELEGRGTVKRGFSHEGWKVRVQECFNRKFDYQA”, the “soluble on expression in E. coli” value is reported as “not soluble”. With “MYLHGTSRINGQGHLEIGGCDTTQLAKQYGTPLYVYDEGSIRGKCRAFHRAFKESGFSYQVAYASKAFLCMEMCRVAREENMSLDVVSGGELYTALQAGFPASRIHFHGNNKTEEEIVMALQANIGCFVVDNFFELEVLHDLAMQHGKFVNILIRVTPGVEAHTHEYITTGQDDSKFGFGVSNGQAMQAIGLALQKSNYNVLGIHSHIGSQIFETAGFVRAIEVLRQFLEEVREQTNYVVKVLNVGGGFGIRYTESDTPLTLETYVRAVTSAVREQFTVCEYPLPEIWIEPGRSIVGDAGTTIYTVGSVKDIPGIRKYVSVDGGMTDNLRPALYNARYEAMLANRANDENEELVSIAGKCCESGDMLIWDIHLPKVAASDLLAVSCTGAYGYSMANNYNRIRRPAVVFAKGGTSQVVVERETYENIIGNDRIRIKELV” the “soluble on expression in E. coli” value was “not soluble”. In the case of “MMLRSHPNTLHITKLSHSAIHQLAPSFAQLPHTNHADGQYRLRRYSVIRFIDGQVVELDKHDFMQTDQINHFQGNVVRRFEPLLSTTLKSDGMRELCALFMEANTLPDGQEIEIHQMRIAAVFDETLVAPEGVHQDGFDHIAIVGIDRYNIVGGEIMLYLSSHEAPFFRKVLENGEVAMLADSQLWHNACPIRTVDHQQEGHMDVFVLTAKDGRHALHS”, the “soluble on expression in E. coli” value is reported as “not soluble”. In the case of “AGGPGSRARAAGARGCRLRSQLVPVRALGLGHRSDELVRFRFCSGSCRRARSPHDLSLASLLGAGALRPPPGSRPVSQPCCRPTRYEAVSFMDVNSTWRTVDRLSATACGCLG”, the “soluble on expression in E. coli” value is reported as “soluble”. In the case of “MAHHHHHHMGTLEAQTQGPGSMQYPPRLGFGTWQAPPEAVQTAVETALMTGYRHIDCAYVYQNEEAIGRAFGKIFKDASSGIKREDVWITSKLWNYNHRPELVREQCKKTMSDLQVDYLDLFLVHWPLAFVRNDVGDLFPKDAEGRAMLEKVPLADTWRAMEQLVEEGLVKHIGVSNYTVPLLADLLNYAKIKPLVNQIEIHPWHPNDATVKFCLDNGIGVTAYSPMGGSYADPRDPSGTQKNVILECKTLKAIADAKGTSPHCVALAWHVKKWNTSMYSVIPKSQTPARIEANFKCTEVQLSDDDMDAINNIHLNKRIRFCDPAIFWKVPLFD”, the “soluble on expression in E. coli” value is reported as “soluble”. For “MKNIVIVGGGVAGTITANYLAMKLREEIREKNVSITLISDREKQLYEPGLLYLIFNRMEESEILKDVKYLLDPLIELKIARATKIDAEKSRVELENGEVVNYDYLVIATGSRVAPEEMPGLVDGGHWFYNLDGAKRLREELARFKKGKVVVSVMGIPHKCPVAPIEVTFMLHEFFKIHGVRKDVELLYTYPINRVFTMEEVSDLVQKMFDERGINYKTFFNPVSIDPEKKVIETLEGEEEPYDLLIAIPPHKGSQVIIDSGLGDRDGWVPTDRYTLKAEGLENVYVVGDATNLPVSKAGSVAHFEAEVVAENIAAEIKGLPPTARYFGKAMCFIETGFSEATYIWFDYETPPKFVKPNKFIHWMKLAYNRMYWLTARGMLLEHHHHHH”, the “soluble on expression in E. coli” value was “soluble”. In the case of “MVVIIPPKLSVSTLMGVLKGRSAIRLFNKFPHVRKKQWGNSFWARGYFVDTVGVNEEIIRRYVRHQDKQDQEHEAQLSLQMM”, the “soluble on expression in E. coli” value is reported as “soluble”. For “MAGLPDQRLANEALKRGDTVTAQQNYQQLAELGYSEAQVGLADIQVGTRDPAQIKQAEATYRAAADTSPRAQARLGRLLAAKPGATEAEHHEAESLLKKAFANGEGNTLIPLAMLYLQYPHSFPNVNAQQQISQWQAAGYPEAGLAQVLLYRTQGTYDQHLDDVERICKAALNTTDICYVELATVYQKKQQPEQQAELLKQMEAGVSRGTVTAQRVDSVARVLGDATLGTPDEKTAQALLEKIAPGYPASWVSLAQLLYDFPELGDVEQMMKYLDNGRAADQPRAELLLGKLYYEGKWVPADAKAAEAHFEKAVGREVAADYYLGQIYRRGYLGKVYPQKALDHLLTAARNGQNSADFAIAQLFSQGKGTKPDPLNAYVFSQLAKAQDTPEANDLATQLEAPLTPAQRAEGQRLVQQELAARGTLAQSTLQLHALQEEDGEESLLEHHHHHH”, the “soluble on expression in E. coli” value was “soluble”. With “MSEDGLKVSVLASGSTGNVTYIETPERKVLVDAGLSGKKIAGLMDSVGRDISEVDSLFVTHEHSDHIQSVGVLARKYGIDIYANQGTWDAIGGKIGKVPTEQKFIFDPNTTKSLDDLDIESFSVSHDAAEPQFYEFHHAGKSFVILTDTGYVSDRIAGTIRNADGYLFEVNHDTEMLRMGGYPWPLKQRIMGDHGHLSNEDGANALMDVIGNRTKKIYLGHLSLHNNMKELAHLTVTSMMQNHDLAVGHDFEILDTDHKIADPLTLILEHHHHHH” the “soluble on expression in E. coli” value was “soluble”. For “MLYLHDVWVNWFEGEENGYNVCHFYEWRKDDTIELLDQVPLLKVDATLYHYIENELLELPQKMLKTYIIRLIFVKIMNVCSKSIALLLQNGKGIIAIDTIGYNVPIRKSRLIPRQEQMVYEMVENVQAEKYEFQVEETEKEHHILSPSPFIMNGLTRKERQLKQLLFMALDQLHTTKNTAEIRYWFTEWDPSAYGMVQHMEFEDIWAKLYDEAKTGWSDKHEQLCERLVKGQPFFEKLWEMENEQKVN”, the “soluble on expression in E. coli” value was “not soluble”. With “MIRLNVFVRVNETNREKAIEAAKELTACSLKEEGCIAYDTFESSTRRDVFMICETWQNAEVLAAHEKTAHFAQYVGIIQELAEMKLEKFEF” the “soluble on expression in E. coli” value was “soluble”. For “MGSDKIHHHHHHMYVAVKGGETAIANAHSLLADRRRGDRSLPTMTVDQIVEQLTLAVGRVMAEASLYDRKLAALAIKQARGDMIEAIFLLRAYRTTLPRFGLSEPVDTGAMRIERRISATYKDLPGGQLLGPTFDYTHRLLDPSLLEEGDVEPPVQKIPTSEAAMRVSDILREEGLIEPDGDMPEDHLAGDITRQPIEFPMARDLRLQSLARGDEGFLLALAYSTQRGYGRSHPFAGEIRLGEVEVELDVPELGFAVSLGRIQVTECQMVNQFKGSSKAPPQFTRGYGLVFGQSERKAMAMSLVDRSLRAEELGEDITAPAQDQEFVLSHCDNVQATGFVEHLKLPHYVDFQAELDLVRRMRSEHEQARQQGLDLSEAAE”, the “soluble on expression in E. coli” value was “not soluble”. For “MSLSSAYQLVIFDWEGTIADTLGVILHTVATEAKMLGFGDIDPYQARKYVDLGLVQAVKKTLPNLTAGQQEDLLQAVQSAMISRPTEVRLIPGVLEFIQQLHQAKVDLAIATNKGHNSLIRALQATELDQLFKVTRSAGQVPAKPCPQMLEEIMEEFGRDPSSTLMIGDSTTDMEMAKRINVNAIGMDFYHQQEDALKAAGALAVFDDYKLLSAYLMLPEAEGHHHHHH”, the “soluble on expression in E. coli” value was “soluble”. In the case of “SLQCLRFAGAATHPAQAPCMPGPACEPVETFLKTCQAPGSEPTGAASLRAKYLPPSTASIRVSAGLLRAALEDSHSGFHLCSATLRWLLAENAAVDVVRAQTLSSIQGIAPDGTDVNLTVHEVAVTDLSPAGPIQAVEIQVESSSLANMCRAHHAIIRRIQTMVTEQAALGSSPPDLRMQYLQQIHANHQELLREVQALRDQLCTEDELSSCSTAQKLLHIYKQLRNPSLVLL”, the “soluble on expression in E. coli” value is reported as “not soluble”. In the case of “MPTYEELSQAVFEGDEAQVVELTRSLLSGGAEPLEVINKGLIAGMDRVGVLFKNNEMFVPEVLMSANAMNAGVEVVKQSQQAFDMPSVGKIVLGTVKGDLHDIGKNLVAMMLESGGFTVYNLGVDIEPGKFVEAVKKYQPDIVGMSALLTTTMMNMKSTIDALIAAGLRDRVKVIVGGAPLSQDFADEIGADGYAPDAASATELCRQLLE”, the “soluble on expression in E. coli” value is reported as “soluble”.
